Test results reported in the RNAGym collection of RNA variant scans (doi:10.7554/elife.80360).

B1: CPEB3 Ribozyme (parent)
chain: GGGGGCCACAGCAGAAGCGUUCACGUCGCGGCCCCUGUCAGAUUCUGGUGAAUCUGCGAAUUCUGCUGU

Variants of: B1
Assay: self-cleavage, relative activity (ratio to wild type); higher = more cleavage; co-transcriptional

Variant	self-cleavage
G41U C45U	0.715
G41U C57A	0.303
G41U C57G	0.328
G41U C57U	0.243
G41U C63A	0.37
G41U C63G	0.43
G41U C66U	0.75
G41U G47A	1.02
G41U G48A	0.998
G41U G50A	0.704
G41U G50U	0.845
G41U G56C	0.357
G41U G56U	0.343
G41U G65C	0.272
G41U U44C	0.366
G41U U49A	0.97
G41U U49G	0.848
G41U U53A	0.616
G41U U55A	0.551
G41U U55C	0.34
G41U U62G	0.391
G41U U67A	0.888
G41U U67G	0.865
G41U U69C	0.697

Variant	self-cleavage
A42C A51C	0.832
A42C A51U	0.952
A42C A59C	0.528
A42C A59G	0.961
A42C A59U	0.633
A42C A60C	0.503
A42C A60G	0.771
A42C C54A	0.707
A42C C54U	0.822
A42C C63U	0.926
A42C C66A	0.57
A42C G47C	0.977
A42C G47U	0.958
A42C G48A	0.965
A42C G48C	0.851
A42C G48U	0.988
A42C G50U	0.932
A42C G56A	0.812
A42C G58A	0.925
A42C G58U	1.01
A42C G65C	0.474
A42C G65U	0.574
A42C U43C	0.777
A42C U46A	0.967

Variant	self-cleavage
A42C U46C	0.895
A42C U49C	0.892
A42C U53C	0.939
A42C U53G	1.04
A42C U61G	0.518
A42C U64C	0.637
A42C U67G	0.919
A42G A51G	0.894
A42G A52G	0.825
A42G A60C	0.405
A42G A60U	0.329
A42G C45G	0.92
A42G C54A	0.708
A42G C54G	0.71
A42G C57A	0.306
A42G C57G	0.276
A42G G47C	0.941
A42G G48A	0.979
A42G G50A	0.88
A42G G50C	0.789
A42G G56U	0.567
A42G G58U	0.978
A42G G68A	0.98
A42G G68C	0.963

Variant	self-cleavage
A42G G68U	1.01
A42G U44G	0.904
A42G U46C	0.965
A42G U53C	0.891
A42G U55G	0.335
A42G U61A	0.693
A42G U61C	0.521
A42G U62A	0.733
A42G U62G	0.709
A42G U64A	0.602
A42G U64C	0.678
A42G U64G	0.693
A42G U69A	1.01
A42U A51G	0.933
A42U A59C	0.546
A42U A59U	0.677
A42U C45A	0.889
A42U C45G	0.89
A42U C45U	0.997
A42U C54U	0.81
A42U C57A	0.379
A42U C57G	0.298
A42U C63A	0.608
A42U C63G	0.533

Variant	self-cleavage
A42U C66G	0.682
A42U G47A	0.957
A42U G48U	0.99
A42U G50A	0.949
A42U G56C	0.326
A42U G58U	0.965
A42U G68C	0.964
A42U G68U	0.99
A42U U43C	0.77
A42U U43G	0.735
A42U U44C	0.913
A42U U44G	0.859
A42U U46A	1.03
A42U U46G	1.01
A42U U49A	0.958
A42U U53C	0.935
A42U U55C	0.522
A42U U61C	0.435
A42U U64C	0.609
A42U U67C	0.947
A42U U69G	1.01
U43A A51C	0.933
U43A A52C	0.991
U43A A52G	1

Variant	self-cleavage
U43A A59C	0.573
U43A A59G	0.782
U43A A59U	0.579
U43A A60C	0.281
U43A C45G	0.868
U43A C54U	0.771
U43A C57G	0.357
U43A C63U	0.86
U43A C66G	0.572
U43A G48C	0.912
U43A G58C	0.901
U43A G68A	0.933
U43A U53A	0.946
U43A U53C	0.795
U43A U55C	0.289
U43A U55G	0.283
U43A U61A	0.651
U43A U61G	0.485
U43A U62C	0.668
U43A U64G	0.578
U43A U67G	0.889
U43A U69C	1.04
U43C A51G	0.964
U43C A51U	0.944

Variant	self-cleavage
U43C A52G	0.965
U43C C45A	0.961
U43C C45G	0.964
U43C C54A	0.734
U43C C57U	0.394
U43C C63U	0.914
U43C C66A	0.614
U43C G47U	0.98
U43C G48A	1.02
U43C G50C	0.915
U43C G50U	0.99
U43C G56U	0.638
U43C G58C	0.936
U43C G65A	0.732
U43C G65U	0.568
U43C G68A	1.03
U43C G68C	1.01
U43C U44G	0.904
U43C U49A	0.988
U43C U49G	0.949
U43C U53C	0.855
U43C U53G	0.978
U43C U55G	0.388
